According to US8691225B2, “Antibodies against the ectodomain of ErbB3 and uses thereof” (Merrimack Pharmaceuticals, Inc., priority 2007, dated 2014):

Experiments:
OVCAR8 spheroids = test: spheroid growth assay; format: cell-based, human; settings: OVCAR8, 25 μg/ml on days 1 and 4
Description: Subconfluent cells are trypsinized, counted, and resuspended in filtered medium. The cell concentration is adjusted to 100,000 cells/ml, and one 20 ul drop (containing 2000 cells) is added to each ring on the underside of the lid of a 96-well plate. The lids with these hanging droplets are then placed back on the original 96-well plate, which contained 100 ul of PBS in each well to maintain moisture. Four days after initial plating, the hanging droplets containing the spheroids are replated into new 96-well plates. This replating involves transferring the lid containing the hanging droplets to a fresh 1% agarose/RPMI-coated 96-well plate that contains 150 ul of medium per well. The plate and lid are then centrifuged together at 500 rpm for 1 minute to transfer the spheroid-containing drops from the lids to the wells. Plates are then further incubated at 37° C. in a humidified CO2 incubator. Spheroids are photographed in an inverted phase contrast microscope. A micrometer scale is also photographed at the same magnification to determine spheroid size. The diameter of the spheroids is determined using METAMORPH image analysis software (MDS Analytical Technologies).
Multicellular tumor spheroids are generated as before.

[1] = biological target: T1, recombinant human EGFR ectodomain (Homo sapiens, UniProt P00533); test: binding specificity ELISA; settings: IgG2 isotype of Ab #6
T1 construct: recombinant human EGFR ectodomain
Description: (§1) 96-well NUNC MAXISORB plates are coated by overnight incubation at room temperature with 50 μl/well of 5 μg/ml of individual proteins. The proteins are recombinant human EGFR ectodomain, BSA, recombinant human ErbB3 ectodomain and TGF-α. The next morning, plates are washed 3 times with […] of PBST (0.05% Tween-20) in the BIOTEK plate washer. The wells are blocked for 1 hr at room temperature with 2% BSA in PBS and washed again as before. […] All samples are run in duplicate and incubated for 2 hrs at 4° C. on a plate shaker. The plates are washed again as before. 50 μl of human IgG-Fc detection antibody (HRP conjugated, Bethyl Laboratories, Inc; 1:75000 dilution in 2% BSA, PBST) is added and the plates are incubated for 1 hr at room temperature. The plates are washed again as before. 50 μL of SUPERSIGNAL ELISA Pico substrate is added and the plate is read on the FUSION plate reader (Packard/Perkin Elmer). The data is analyzed using the EXCEL program. Duplicate samples are averaged and the error bars represent the standard deviation between the two replicates.

TGF-α = TGF-α (Homo sapiens, UniProt P01135); test: binding specificity ELISA; settings: IgG2 isotype of Ab #6
Description: as §1

[2] = biological target: T2, recombinant human ErbB3 ectodomain (Homo sapiens, UniProt P21860); test: binding specificity ELISA; settings: IgG2 isotype of Ab #6
T2 construct: recombinant human ErbB3 ectodomain
Description: as §1

MALME-3M cells = test: CellTiter-Glo proliferation assay; format: cell-based, human; settings: 96 hours
Description: (§2) MALME3M, ACHN and NCI/AdrR cells are seeded in 96 well tissue culture plates and grown in RPMI-1640 media supplemented with antibiotics, 2 mM L-glutamine and 10% FBS for 24 hours at 37 degrees Celsius and 5% carbon dioxide. […] Cells are grown for 96 hours at 37° C. and 5% carbon dioxide, then harvested with CellTiter-Glo® Luminescent Cell Viability Assay (Promega, G7573) and analyzed on a luminometer. Media containing no serum and antibody is used as control.

ACHN cells = test: CellTiter-Glo proliferation assay; format: cell-based, human; settings: 96 hours
Description: as §2

[3] = system: AdrR ovarian cancer cells; test: CellTiter-Glo proliferation assay; format: cell-based, human; settings: 96 hours
Description: as §2

ErbB3 = ErbB3 (Homo sapiens, UniProt P21860); test: Surface Plasmon Resonance Assay; format: binding
[4] = biological target: T3, ErbB3 receptors on MALME-3M cells (Homo sapiens, UniProt P21860); test: downregulation of ErbB3 receptors on MALME-3M cells by FACS; format: cell-based; settings: 100 nM
T3 construct: ErbB3 expressed on MALME-3M melanoma cells; host or cells: MALME-3M melanoma cells
Description: MALME-3M cells are trypsinized from a 15 cm dish and washed once with RPMI+10% FBS. Cell pellets are resuspended at a density of 1×10^6 cells per ml. Two aliquots of 2×10^5 cells are added to separate wells in a 12-well tissue culture plate and each resuspended in a final volume of 800 ul RPMI+10% FBS.
Cells are washed twice with 1 ml BD stain buffer and incubated with 100 ul of a 1:500 dilution of Alexa 647-labeled goat anti-human Alexa 647 for 45 minutes on ice. Cells are then washed and resuspended in 300 ul BD stain buffer+0.5 ug/ml propidium iodide. Analysis of 10,000 cells is done in a FACSCALIBUR flow cytometer using the FL4 channel.

[5] = biological target: T4, ErbB3 receptor on the surface of MALME-3M cells (Homo sapiens, UniProt P21860); test: cell surface fluorescence quenching assay (timecourse of ErbB3 downregulation); format: cell-based
T4 construct: ErbB3 expressed on MALME-3M melanoma cells; host or cells: MALME-3M melanoma cells
Description: In order to determine whether this downregulation of ErbB3 is due to internalization of the ErbB3 receptor on the surface of MALME-3M cells, a cell surface fluorescence quenching assay is preformed. MALME-3M cells are plated overnight on 6-well plates (0.2×10^6 per well) in RPMI+10% FBS. The following day, old medium is removed and cells are preincubated for 60 minutes on ice in RPMI+2% FBS containing 100 nM of Ab#6 conjugated to the fluorescent dye Alexa 488. Cells are then returned to a 37° C. incubator and incubated for 0.5 h, 2 h or 24 h. At the end of each timepoint, cells are trypsinized, washed with PBS+2% BSA+0.1% sodium azide (FACS stain buffer) and stored on ice until all samples are ready. For a Oh timepoint, cells are immediately trypsinized after the 60 minute preincubation and stored on ice. […] One set of tubes is incubated with 25 ug/ml anti-Alexa 488 antibody for 60 minutes on ice to quench any fluorescence source (i.e., Alexa 488-conjugated Ab#6) on the cell surface. […] For each sample 10,000 events are collected and analyzed with a FACSCALIBUR flow cytometer. This protocol gives an indication of what proportion of AB #6 (as measured by fluorescence) remains on the cell surface (indicated by the differential between the fluorescence of the quenched and unquenched cells at each timepoint) and how much is internalized (indicated by the level of fluorescence of quenched cells).

[6] = biological target: T5, AdrR cells expressing ErbB3 receptor (Homo sapiens, UniProt P21860); test: HRG and BTC binding to AdrR cells by FACS; format: cell-based
T5 construct: host or cells: AdrR (NCI/AdrR) ovarian cancer cells

B1: Ab #6: human anti-ErbB3 antibody from Fab-phage library, CDRs SEQ ID NOs:7-12; used as IgG1 and IgG2 isotypes; in phase I trials as MM-121 (antibody, V domains shown)
VH: EVQLLESGGGLVQPGGSLRLSCAASGFTFSHYVMAWVRQAPGKGLEWVSSISSSGGWTLYADSVKGRFTISRDNSKNTLYLQMNSLRAEDTAVYYCTRGLKMATIFDYWGQGTLVTVSS
VL: QSALTQPASVSGSPGQSITISCTGTSSDVGSYNVVSWYQQHPGKAPKLIIYEVSQRPSGVSNRFSGSKSGNTASLTISGLQTEDEADYYCCSYAGSSIFVIFGGGTKVTVL
**Q.** How did the “decrease in spheroid area” value (OVCAR8 spheroids) turn out when B1 was run?
**A.** Its value is 30-40%.

**Q.** What about the “binding in ELISA” value [1] of the same molecule?
**A.** Its value is “did not show any appreciable binding”.

**Q.** What about the “binding in ELISA” value (TGF-α) of the same molecule?
**A.** Its value is “did not show any appreciable binding”.

**Q.** And the “binding in ELISA” value [2]?
**A.** Its value is “bound recombinant ErbB3”.

**Q.** What about the inhibition of proliferation (MALME-3M cells) of the same molecule?
**A.** Its inhibition of proliferation is “about 19.6%”.

**Q.** What about the inhibition of proliferation (ACHN cells) of the same molecule?
**A.** The inhibition of proliferation was “about 25.4%”.

**Q.** And the inhibition of proliferation [3]?
**A.** Its inhibition of proliferation is “about 30.5%”.

**Q.** What about the “competition with HRG for binding to ErbB3” value (ErbB3) of the same molecule?
**A.** Its value is “competes with HRG for binding to ErbB3”.

**Q.** What about the “downregulation of ErbB3 on MALME-3M cells” value ([4]; IgG1 isotype) of the same molecule?
**A.** The value was “about 62%”.

**Q.** And the “downregulation of ErbB3 on MALME-3M cells” value ([4]; IgG2 isotype)?
**A.** Its value is “about 66%”.

**Q.** And the “downregulation of cell surface ErbB3 receptors” value ([5]; after about 30 minutes)?
**A.** The value was “about 50%”.

**Q.** And the “downregulation of cell surface ErbB3 receptors” value ([5]; at about 24 hours)?
**A.** The value was “about 93%”.

**Q.** What about the “competition with BTC for binding to AdrR cells” value [6] of the same molecule?
**A.** The value was “competes with HRG but not BTC”.

**Q.** And the “competition with HRG for binding to AdrR cells” value [6]?
**A.** The value was “competes with HRG”.
